From US20120156246A1

Biological target: histidine tagged PSMGFR peptide (MUC1* extra cellular domain)
Assay: SPR, histidine-tagged PSMGFR on 3.8% or 5.7% NTA SAM chip

Chain of histidine tagged PSMGFR peptide (MUC1* extra cellular domain) (peptide, as listed by the source): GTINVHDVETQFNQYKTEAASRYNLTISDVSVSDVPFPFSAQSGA

SPR binding response (RUs): 70 RU
Substance: NM23-S120G (100% hexamer preparation) (from UniProt P15531 1-152) (ligand)
